Test results reported in the DeepSol protein solubility set.

Experiment: soluble on expression in E. coli; label from the status in PepcDB or PDB records

| Sequence | soluble on expression in E. coli |
| --- | --- |
| MGSDKIHHHHHHMAVIYYDKDADLNLIKDKKIAIIGYGSQGHAHALNLKDSGLNVVVGLREGSKSWKKAEEQGLTVKTIEEAAKEADIIMILIPDEHQPEIYKKYIEKHLTEGKMLMFAHGFNIHYHQIIPPKNVDVTMIAPKSPGHIVRREYVEGRGVPALVAVYQDYTGKAKDIALAYAKGIGVTRAGVIETTFKEETETDLFGEQAVLCGGVTALIKAGFETLVDAGYQPEIAYFECLNELKLIVDLIYEGGLSFMRYSVSNTAEYGDYISQEKIVTKEVRENMKQMLKDIQTGKFAKDWILENQAGRPYFYTMRKKESEHLIEKVGKELRKMMPWLKERNVDEE | not soluble |
| MGSDKIHHHHHHMSQLLRKPERAEISKGVTLVHDVTADNASLEYVSFKALDLSQGATYSETLENKECCIVVVTGKVHVTDHEVTFENIGTRESVFEKKPTDSVYVSNNQTFSIEAVTGARVALCYAPSKNQLPTKLIKAEDNGVEHRGKGNNQRMVHNILPDSDPSANSLLVVEVFTESGNWSSYPPHKHDRDLLPEESLLEETYYHEVNPKQGFVFQRVYTDDRSLDETMTVENENMVIVPKGYHPVGVPEGYASYYLNVMAGPKRIWKFFNDPAHEWIIE | not soluble |
| MLPAYIRIHDQIKKEIDEGLWKIGDRLPSERDLAERFEVSRMTLRQAITLLVEEGILERRVGSGTYIASSRVQEKMRGTTSFTEIVKSQGKTPSTKLISYRRVHPSEQEIKFLDIKPKSYIIRMERVRYADDIPVVFEVTAIPEKIIKSFKKEAITKHFFKTLTDHGFVIGKSQQTISASNANEMTADYLAISRGHAVLTLAQVSYFENGMPFEYVRSQYVGERFEFYLENK | not soluble |
| MGSDKIHHHHHHMEDILKYLQVHVPFRMLEGGFLDTVIAKGISPEIGFDCAILDATGKDRFREVADRFSDAGLRVTFHAPFMDLRPGAIDPRIREVSRERIQQVFDLVPLFRPRTIVCHPSFDSRYYVSSERKWLENSTLTWSTFVEQAAEFDTLLLLENVYEKEPRQFVHLLTALDSLRVRFCLDTGHCNAFSDAPLSSWLEELGTFLGEVHLHDNDGSRDAHLPIGEGNFPFMELFGFLKTKVNRPILTLEAHSADHLSRTLETLRKNRLFGLI | not soluble |
| MNNETTTLISLKEAMKRVDHKLQALETQFKELDFTKDNLMQKFEHHSKALASQAAQDEMWTAVRALQLTSMELNILYSYVIEVLICLHTRVLEKLPDLVRGLPTLASVLRRKVKNKRVRVVWESILEECGLQEGDITALCTFFIARGNKAEHYTAKVRQMYIRDVTFLITNMVKNQALQDSLLRAVQVIEKGKAVRTPEKQKSSLEELIPSVKN | soluble |
| MGHHHHHHMPEINTNHLDKQQVQLLAEMCILIDENDNKIGAETKKNCHLNENIEKGLLHRAFSVFLFNTENKLLLQQRSDAKITFPGCFTNTCCSHPLSNPAELEESDALGVRRAAQRRLKAELGIPLEEVPPEEINYLTRIHYKAQSDGIWGEHEIDYILLVRMNVTLNPDPNEIKSYCYVSKEELKELLKKAASGEIKITPWFKIIAATFLFKWWDNLNHLNQFVDHEKIYRM | soluble |
| MSLDSLDKSKLERMLDIKEAHREGHLTLEEAKERMKKEVGSISPEEFAAAEQLFKERDQDECQNEDVRTMLQLFEGLINPIRPDLPFGHPIDAYLRENDKAKELLDQADALLERTFIPNPWIELMETLMGYKLHFARKQNQLYSTLEQKGFDRPSTTMWTYDDHIRDEMNKAMSLLREKDYDSFPAAYKEMAIVLRDLMEKEELILYPTSLKLISDKEFEEMKHGDREIGFFLIDMPELDAPAKQSKEAHGQSFMAELGALLAKHGMGTGGQDDKAILDVAEGKLTLEQINLLFRHLPVDISFVDENELVCFYTDTKHRVFPRSKGVIGREVRNCHPPKSVHIVEEIIDKFRRGEQDRAEFWINKPGVFIYIVYVAIRDADGRFRGVMEMMQDCTRIRSLEGSRTLLTEGHHHHHH | soluble |
| SANTSFLLRKKIFAKLMRITTPSHDHYGSSTLLVRLTNDVYLMEVIAFDFL | not soluble |
| MGSDKIHHHHHHMAYLTIIKNGETIDHRKYGLKLLSFRKESLTHRTNFEEIGGRHGAIDTGTTFGERKLKATFLMQGVDHLDYQLMIDEVYALFACEDSIELIDSRQPGKVWTVKPSSTFEPDDLNPRSGKFEIEFTSPLPFASSYGSTLDPFTFGEEVWQIGQGLIPSDSLVYRHRTTRFSIFNAGNVEVDPCLEMPLNIVYKGASSNFSIKNKTTGQTISYNGTSKSTDSIKLEGLRHLKNGISIYGNTNRGYVSLKPGWNDFELTGTSGSFEITFDFFFFYK | not soluble |
| MAHHHHHHMSENVAAAQRRWQAGMHEVEAYLNALDSARADSAKAGLYHRAQQCMQHMEKIIRLLAKRIAREANIMAERARQALTEQQRLLQRNLRKRWKTKMLVYEENASAMLAAAEQHHYAERVREDERAHEELRSVRAGGSMAHSRSSKVQHLQSEIQLYLRQHRYREAERAQAQLSRFEKQEQQSQQRNLTHLQEQRLQAMRMKQEEQLAKMKAAYQQEKQEITRTCRAELDAMTRQHEVALQAVEERRLFLHERVQAILKAYNDADTLDPRAAGQKLIRISQLLWTSREVQQSSKRI | not soluble |
| MSLTQVRQTDSGDSLETARPADLLVLLDSLRQREATLNAEVIDLQNTLNALQASGNTDQAALESAQARLAALSILVGAVGATGPGVMITIDDPGPGVAPEVMIDVINELRAAGAEAIQINDAHRSVRVGVDTWVVGVPGSLTVDTKVLSPPYSILAIGDPPTLAAAMNIPGGAQDGVKRVGGRMVVQQADRVDVTALRQPKQHQYAQPVKEGHHHHHH | soluble |
| MGKARGVNNGVNESSLGYLFGSGQPSSAAAATMGTTTTTTTTTTTDGTGGRPITTTTTTVTDNKKTSAGVRGSPNNYFRSEGQNCGNFLTDRPSTKVHAAPGGGSSLDYLFGGPSPAGSGNK | not soluble |
| MSYQGRARKFLESASIDVGDMVLVEKPDVTYEGMVLDRADDADDRHIVLKLENGYNIGVEISDARIELLEKGSEPRIELPPVEAAEDPELPDVSIISTGGTVASIIDYRTGAVHPAFTADDLLRANPELLDIANIRGRAVFNILSENMKPEYWVETARAVYGEIKDGADGVVVAHGTDTMHYTSAALSFMLRTPVPVVFTGAQRSSDRPSSDASLNIQCSVRAATSEIAEVTVCMHATMDDLSCHLHRGVKVRKMHTSRRDTFRSMNALPLAEVTPDGIKILEENYRKRGSDELELSDRVEERVAFIKSYPGISPDIIKWHLDEGYRGIVIEGTGLGHCPDTLIPVIGEAHDMGVPVAMTSQCLNGRVNMNVYSTGRRLLQAGVIPCDDMLPEVAYVKMCWVLGQTDDPEMAREMMRENIAGEINERTSIAYFRG | soluble |
| MDKMFKRTLLGAAVAMASTGAFAASETGAIGVLSDFNVQAYGVAAISAFYQEDSNGYDYENESRIGFRASKDMFDNVNVFMQIESGYVGEDGKGSTLGARDTFLGLQGDWGKVRFGRMLTPLYEIVDWPYSNPGLGRVFDWGGDVAGHYDRKGDIARYDSPAFGGLTFNISAGRGDVGTKSSNHFGAAAHYNAADIVTFHVGYENNSNFKYDYKTKDTAGKDVDNTFLTDATAYIVGFELPLPAGFGLAGAYKYTEGASKTVKGQEGEQGQYSLIGQYWNGPWGFKVGYAANLESEVNGVEQKDDDEVLSAQLMYVKNGFVPYIRVGQHDAYDSADKKGFVRVGLEYGF | not soluble |
| MEKKANHGDDVQESVPIIHSQVVKIKREFEKIQHPSLKQPEMPLVFREIMGPRRSRSPLGLGERERSIPVGN | not soluble |
| SLANLSKERQQALLKILHYIQDGGDFTEAKKMFQESFDKVDVSEITAAERELIAQGLDPRKIQYLCNVHADVFKGNIKENAANPDFATPGHPVNTLKQENVVIKSLVNDYLLPNLKKWEKDHSEQTLSKIKQALSDLATIGKHYARKETSFFPLMTKYGITAPPQVMWGVDDKIRRLIKEANNVVNENDVDPAKLRKIIDEVSHEVLEMIFKEEEIMVPMIDEVASPADWGNVKDEEKQIGYTLINPPMNWKPKEE | soluble |
| VQLLESGPGVVKPSETLSLTCTVSGASVNNYYWTWVRQPPGKGLEWIGNVYDSGDTNYNPSLSSRLSLSMDTSKNQFSLRLSSVTAADTATYYCARYHRHFIRGPLSFDYWGRGTLVTVSSASTKGPSVFPLAPSSKSTSGGTSALGCLVKDYFPEPVTVSWNSGALTSGVHTFPAVLQSSGLYSLSSVVTVPSSSLGTQTYICNVNHKPSNTKVDKKVEPKSCDKTS | soluble |
